# Results as given in patent US20200223888A1 (ARCH BIOPARTNERS, published 2020).
# Ends that are not written are not given here. * marks the point of attachment. Biotin = O=C1N[C@H]2[C@H](CS[C@H]2CCCCC(=O)*)N1
# B1: human membrane dipeptidase (DPEP-1), wild type, expressed on transfected cells (protein)
# chain: DFFRDEAERIMRDSPVIDGHNDLPWQLLDMFNNRLQDERANLTTLAGTHTNIPKLRAGFVGGQFWSVYTPCDTQNKDAVRRTLEQMDVVHRMCRMYPETFLYVTSSAGIRQAFREGKVASLIGVEGGHSIDSSLGVLRALYQLGMRYLTLTHSCNTPWADNWLVDTGDSEPQSQGLSPFGQRVVKELNRLGVLIDLAHVSVATMKATLQLSRAPVIFSHSSAYSVCASRRNVPDDVLRLVKQTDSLVMVNFYNNYISCTNKANLSQVADHLDHIKEVAGARAVGFGGDFDGVPRVPEGLEDVSKYPDLIAELLRRNWTEAEVKGALADNLLRVFEAVEQASNLTQAPEEEPIPLDQLGGSCRTHYGYSS
# B2: LSALT peptide (LSALTPSPSWLKYKAL) (peptide)
# peptide: LSALTPSPSWLKYKAL
# modifications: also: Alexa-488 or biotin label or agarose support in some assays, site not given here
# notes: Synthetic peptide from a phage display hit; The label or support differs between assays; also called Metablok; Native
# B3: phage hit displaying KHMHWHPPALNT (Ph.D.-12 library) (peptide)
# peptide: KHMHWHPPALNT
# notes: The phage coat protein part is not described; also called neogenin-mimetic peptide phage hit; phage peptide tentatively identified as corresponding to Neogenin
# Experiments:
# [1] = target: GFE-1 peptide
# [2] = target: T1, LSALT peptide (LSALTPSPSWLKYKAL)
# T1 chain: LSALTPSPSWLKYKAL
# [3] = target: T2, human membrane dipeptidase (DPEP-1), wild type, expressed on transfected cells (human, UniProt P16444 17-385); assay: Alexa-488 peptide on transfected Cos-1 cells, immunofluorescence microscopy (FIG. 5B)
# T2 construct: whole, on cells; also called human DPEP1; hDPEP1
# T2 sequence (looked up): B1 chain
# Protocol: Cells were blocked with FBS/NBSA/Tween in PBS for 30 minutes on ice.
# [4] = target: T3, rat membrane dipeptidase (DPEP-1), expressed on transfected Cos cells (rat, UniProt P31430 17-384); assay: Alexa-488 peptide on transfected Cos-7 cells, flow cytometry (FIG. 9)
# T3 construct: whole, on cells; also called renal rat membrane dipeptidase (DPEP-1); rat DPEP-1
# T3 sequence (P31430 17-384): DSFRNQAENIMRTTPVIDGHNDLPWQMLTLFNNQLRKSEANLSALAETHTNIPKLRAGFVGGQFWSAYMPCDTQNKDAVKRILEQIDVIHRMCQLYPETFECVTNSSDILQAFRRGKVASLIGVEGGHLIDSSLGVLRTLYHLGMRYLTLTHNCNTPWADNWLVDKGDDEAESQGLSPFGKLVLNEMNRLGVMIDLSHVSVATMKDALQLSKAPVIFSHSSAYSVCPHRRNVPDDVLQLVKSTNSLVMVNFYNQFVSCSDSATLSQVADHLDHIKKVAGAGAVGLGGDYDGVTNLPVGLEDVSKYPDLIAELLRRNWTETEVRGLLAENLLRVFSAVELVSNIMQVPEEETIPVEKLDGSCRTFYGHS
# Protocol: Cells were washed and flow cytometry was performed to assess binding. Shown are single parameter histographs for each experimental condition (n=2).
# [5] = target: T2, human membrane dipeptidase (DPEP-1), …; assay: biotinylated peptide at 5 uM on fixed DPEP1-transfected HEK cells, Alexa 568-streptavidin, fluorescence microscopy
# [6] = target: T2, human membrane dipeptidase (DPEP-1), …; assay: phage (10^8 pfu) on DPEP1 transfected Cos 1 cells, anti-M13 serum, fluorescence imaging (FIG. 19B)
# Protocol: In FIG. 19B, Cosl cells were transiently transfected with plasmids corresponding to human DPEP1 or DPEP2 (Lipofectamine 2000) 24 hrs prior to plating on collagen-coated (PureCol; Type I collagen from bovine tendon) coverslips. One day later cells were incubated with 10⁸ pfu test phage, which were then detected by anti-M13 rabbit serum (in house) with anti-rabbit Alexa 568 secondary. After fixing and counterstaining with DAPI, coverslips were fluorescently imaged.
# [7] = target: B2; assay: phage display biopanning against LSALT-agarose, three rounds, plaque sequencing (FIG. 20A)
# Excerpt: Each plaque was amplified separately in liquid bacterial host culture. […] DNA inserts were translated to the expected protein and sorted to assess the number of repeating sequences.
binder,measurement,setting,value
B1,"membrane dipeptidase enzyme activity (Gly-D-Phe substrate, fluorimetric detection of D-Phe)",[1],LSALT and GFE-1 do not inhibit membrane dipeptidase enzyme activity
same,"membrane dipeptidase enzyme activity (Gly-D-Phe substrate, fluorimetric detection of D-Phe)",[2],LSALT and GFE-1 do not inhibit membrane dipeptidase enzyme activity
B2,binding result,[3],binds
same,binding result,[4],binds
Biotin-ASALTPSPSWLKYKAL (also called #A1; A1) [LSALT alanine walk peptide Pos 1 (ASALTPSPSWLKYKAL)],binding result,[5],binds
Biotin-LSALTPSPSALKYKAL (also called #A10; A10) [LSALT alanine walk peptide Pos 10 (LSALTPSPSALKYKAL)],binding result,[5],binds
Biotin-LSALTPSPSWLAYKAL (also called #A12; #Al2) [LSALT alanine walk peptide Pos 12 (LSALTPSPSWLAYKAL)],binding result,[5],binds
Biotin-LSALAPSPSWLKYKAL (also called #A5; A5) [LSALT alanine walk peptide Pos 5 (LSALAPSPSWLKYKAL)],binding result,[5],binds
B3,binding result,[6],binds
HIPKSPIQIPII (also called IPK peptide) [IPK phage hit HIPKSPIQIPII (Ph.D.-12 library)],binding result,[7],binds
